Numbered stars: 1 amine (or outer) side, 2 acyl side, 3 side chain; on linkers, the order of the positions; unused ones are H or OH. Square brackets hold non-standard residues; d marks the D form. Primed or numbered codes have the meaning given here. Side chains are listed from the residue outwards. Ends that are not written are not given here. * marks the point of attachment. 40K‑TE PEG″ = 40 kDa PEG bound to Cys via thioether made from an iodoacetyl-functionalised PEG; γGlu = O=C(O)[C@H](CCC(=O)[*:2])N[*:1]; Palmitoyl = CCCCCCCCCCCCCCCC(=O)*; Orn = NCCC[C@H](N)C(=O)O; Aib = CC(C)(N)C(=O)O

Sequences and labels used below:
T1: GIP receptor
T1 sequence (P48546 whole entry, species assumed, looked up): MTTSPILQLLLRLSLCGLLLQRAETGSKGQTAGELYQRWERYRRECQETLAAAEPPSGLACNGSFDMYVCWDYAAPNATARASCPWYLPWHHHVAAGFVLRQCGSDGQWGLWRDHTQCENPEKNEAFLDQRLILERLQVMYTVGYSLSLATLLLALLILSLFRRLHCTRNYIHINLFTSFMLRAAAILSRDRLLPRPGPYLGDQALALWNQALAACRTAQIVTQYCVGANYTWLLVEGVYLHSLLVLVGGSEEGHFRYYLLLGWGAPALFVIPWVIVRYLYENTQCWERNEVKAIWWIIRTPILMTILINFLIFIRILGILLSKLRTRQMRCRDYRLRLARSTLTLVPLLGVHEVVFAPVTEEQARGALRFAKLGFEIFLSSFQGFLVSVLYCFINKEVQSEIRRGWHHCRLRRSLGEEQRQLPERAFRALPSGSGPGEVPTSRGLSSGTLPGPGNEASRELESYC

B1: peptide of SEQ ID NO: 26 (peptide)
peptide: H[Aib]QGTFTSDK([γGlu-γGlu-Palmitoyl])SKYLD[Aib]RAAQDFVQWLK[Aib]GRG-NH2
modifications: N-terminus assumed
SMILES: CCCCCCCCCCCCCCCC(=O)N[C@@H](CCC(=O)N[C@@H](CCC(=O)NCCCC[C@H](NC(=O)[C@H](CC(=O)O)NC(=O)[C@H](CO)NC(=O)[C@@H](NC(=O)[C@H](Cc1ccccc1)NC(=O)[C@@H](NC(=O)CNC(=O)[C@H](CCC(N)=O)NC(=O)C(C)(C)NC(=O)[C@@H](N)Cc1c[nH]cn1)[C@@H](C)O)[C@@H](C)O)C(=O)N[C@@H](CO)C(=O)N[C@@H](CCCCN)C(=O)N[C@@H](Cc1ccc(O)cc1)C(=O)N[C@@H](CC(C)C)C(=O)N[C@@H](CC(=O)O)C(=O)NC(C)(C)C(=O)N[C@@H](CCCNC(=N)N)C(=O)N[C@@H](C)C(=O)N[C@@H](C)C(=O)N[C@@H](CCC(N)=O)C(=O)N[C@@H](CC(=O)O)C(=O)N[C@@H](Cc1ccccc1)C(=O)N[C@H](C(=O)N[C@@H](CCC(N)=O)C(=O)N[C@@H](Cc1c[nH]c2ccccc12)C(=O)N[C@@H](CC(C)C)C(=O)N[C@@H](CCCCN)C(=O)NC(C)(C)C(=O)NCC(=O)N[C@@H](CCCNC(=N)N)C(=O)NCC(N)=O)C(C)C)C(=O)O)C(=O)O
B2: peptide of SEQ ID NO: 30 (peptide)
peptide: H[Aib]QGTFTSDK([γGlu-Palmitoyl])SKYLD[Aib]RAAQDFVQWLLDGRG-NH2
modifications: N-terminus assumed
SMILES: CCCCCCCCCCCCCCCC(=O)N[C@@H](CCC(=O)NCCCC[C@H](NC(=O)[C@H](CC(=O)O)NC(=O)[C@H](CO)NC(=O)[C@@H](NC(=O)[C@H](Cc1ccccc1)NC(=O)[C@@H](NC(=O)CNC(=O)[C@H](CCC(N)=O)NC(=O)C(C)(C)NC(=O)[C@@H](N)Cc1c[nH]cn1)[C@@H](C)O)[C@@H](C)O)C(=O)N[C@@H](CO)C(=O)N[C@@H](CCCCN)C(=O)N[C@@H](Cc1ccc(O)cc1)C(=O)N[C@@H](CC(C)C)C(=O)N[C@@H](CC(=O)O)C(=O)NC(C)(C)C(=O)N[C@@H](CCCNC(=N)N)C(=O)N[C@@H](C)C(=O)N[C@@H](C)C(=O)N[C@@H](CCC(N)=O)C(=O)N[C@@H](CC(=O)O)C(=O)N[C@@H](Cc1ccccc1)C(=O)N[C@H](C(=O)N[C@@H](CCC(N)=O)C(=O)N[C@@H](Cc1c[nH]c2ccccc12)C(=O)N[C@@H](CC(C)C)C(=O)N[C@@H](CC(C)C)C(=O)N[C@@H](CC(=O)O)C(=O)NCC(=O)N[C@@H](CCCNC(=N)N)C(=O)NCC(N)=O)C(C)C)C(=O)O
B3: peptide of SEQ ID NO: 33 (peptide)
peptide: H[Aib]QGTFTSDK([γGlu-γGlu-Palmitoyl])SKYLD[Aib]RAAQDFVQWLM[Orn]T[Orn]E-OH
modifications: N-terminus assumed
SMILES: CCCCCCCCCCCCCCCC(=O)N[C@@H](CCC(=O)N[C@@H](CCC(=O)NCCCC[C@H](NC(=O)[C@H](CC(=O)O)NC(=O)[C@H](CO)NC(=O)[C@@H](NC(=O)[C@H](Cc1ccccc1)NC(=O)[C@@H](NC(=O)CNC(=O)[C@H](CCC(N)=O)NC(=O)C(C)(C)NC(=O)[C@@H](N)Cc1c[nH]cn1)[C@@H](C)O)[C@@H](C)O)C(=O)N[C@@H](CO)C(=O)N[C@@H](CCCCN)C(=O)N[C@@H](Cc1ccc(O)cc1)C(=O)N[C@@H](CC(C)C)C(=O)N[C@@H](CC(=O)O)C(=O)NC(C)(C)C(=O)N[C@@H](CCCNC(=N)N)C(=O)N[C@@H](C)C(=O)N[C@@H](C)C(=O)N[C@@H](CCC(N)=O)C(=O)N[C@@H](CC(=O)O)C(=O)N[C@@H](Cc1ccccc1)C(=O)N[C@H](C(=O)N[C@@H](CCC(N)=O)C(=O)N[C@@H](Cc1c[nH]c2ccccc12)C(=O)N[C@@H](CC(C)C)C(=O)N[C@@H](CCSC)C(=O)N[C@@H](CCCN)C(=O)N[C@H](C(=O)N[C@@H](CCCN)C(=O)N[C@@H](CCC(=O)O)C(=O)O)[C@@H](C)O)C(C)C)C(=O)O)C(=O)O
B4: peptide of SEQ ID NO: 31 (peptide)
peptide: H[Aib]QGTFTSDK([γGlu-γGlu-Palmitoyl])SKYLD[Aib]RAAQDFVQWLMKGRG-OH
modifications: N-terminus assumed
SMILES: CCCCCCCCCCCCCCCC(=O)N[C@@H](CCC(=O)N[C@@H](CCC(=O)NCCCC[C@H](NC(=O)[C@H](CC(=O)O)NC(=O)[C@H](CO)NC(=O)[C@@H](NC(=O)[C@H](Cc1ccccc1)NC(=O)[C@@H](NC(=O)CNC(=O)[C@H](CCC(N)=O)NC(=O)C(C)(C)NC(=O)[C@@H](N)Cc1c[nH]cn1)[C@@H](C)O)[C@@H](C)O)C(=O)N[C@@H](CO)C(=O)N[C@@H](CCCCN)C(=O)N[C@@H](Cc1ccc(O)cc1)C(=O)N[C@@H](CC(C)C)C(=O)N[C@@H](CC(=O)O)C(=O)NC(C)(C)C(=O)N[C@@H](CCCNC(=N)N)C(=O)N[C@@H](C)C(=O)N[C@@H](C)C(=O)N[C@@H](CCC(N)=O)C(=O)N[C@@H](CC(=O)O)C(=O)N[C@@H](Cc1ccccc1)C(=O)N[C@H](C(=O)N[C@@H](CCC(N)=O)C(=O)N[C@@H](Cc1c[nH]c2ccccc12)C(=O)N[C@@H](CC(C)C)C(=O)N[C@@H](CCSC)C(=O)N[C@@H](CCCCN)C(=O)NCC(=O)N[C@@H](CCCNC(=N)N)C(=O)NCC(=O)O)C(C)C)C(=O)O)C(=O)O
B5: peptide of SEQ ID NO: 29 (peptide)
peptide: H[Aib]QGTFTSDK([γGlu-γGlu-Palmitoyl])SKYLD[Aib]RAAQDFVQWLL[Aib]GRG-NH2
modifications: N-terminus assumed
SMILES: CCCCCCCCCCCCCCCC(=O)N[C@@H](CCC(=O)N[C@@H](CCC(=O)NCCCC[C@H](NC(=O)[C@H](CC(=O)O)NC(=O)[C@H](CO)NC(=O)[C@@H](NC(=O)[C@H](Cc1ccccc1)NC(=O)[C@@H](NC(=O)CNC(=O)[C@H](CCC(N)=O)NC(=O)C(C)(C)NC(=O)[C@@H](N)Cc1c[nH]cn1)[C@@H](C)O)[C@@H](C)O)C(=O)N[C@@H](CO)C(=O)N[C@@H](CCCCN)C(=O)N[C@@H](Cc1ccc(O)cc1)C(=O)N[C@@H](CC(C)C)C(=O)N[C@@H](CC(=O)O)C(=O)NC(C)(C)C(=O)N[C@@H](CCCNC(=N)N)C(=O)N[C@@H](C)C(=O)N[C@@H](C)C(=O)N[C@@H](CCC(N)=O)C(=O)N[C@@H](CC(=O)O)C(=O)N[C@@H](Cc1ccccc1)C(=O)N[C@H](C(=O)N[C@@H](CCC(N)=O)C(=O)N[C@@H](Cc1c[nH]c2ccccc12)C(=O)N[C@@H](CC(C)C)C(=O)N[C@@H](CC(C)C)C(=O)NC(C)(C)C(=O)NCC(=O)N[C@@H](CCCNC(=N)N)C(=O)NCC(N)=O)C(C)C)C(=O)O)C(=O)O
B6: peptide of SEQ ID NO: 25 (peptide)
peptide: H[Aib]QGTFTSDK([γGlu-γGlu-Palmitoyl])SKYLD[Aib]RAAQDFVQWLKDGRP-NH2
modifications: N-terminus assumed
SMILES: CCCCCCCCCCCCCCCC(=O)N[C@@H](CCC(=O)N[C@@H](CCC(=O)NCCCC[C@H](NC(=O)[C@H](CC(=O)O)NC(=O)[C@H](CO)NC(=O)[C@@H](NC(=O)[C@H](Cc1ccccc1)NC(=O)[C@@H](NC(=O)CNC(=O)[C@H](CCC(N)=O)NC(=O)C(C)(C)NC(=O)[C@@H](N)Cc1c[nH]cn1)[C@@H](C)O)[C@@H](C)O)C(=O)N[C@@H](CO)C(=O)N[C@@H](CCCCN)C(=O)N[C@@H](Cc1ccc(O)cc1)C(=O)N[C@@H](CC(C)C)C(=O)N[C@@H](CC(=O)O)C(=O)NC(C)(C)C(=O)N[C@@H](CCCNC(=N)N)C(=O)N[C@@H](C)C(=O)N[C@@H](C)C(=O)N[C@@H](CCC(N)=O)C(=O)N[C@@H](CC(=O)O)C(=O)N[C@@H](Cc1ccccc1)C(=O)N[C@H](C(=O)N[C@@H](CCC(N)=O)C(=O)N[C@@H](Cc1c[nH]c2ccccc12)C(=O)N[C@@H](CC(C)C)C(=O)N[C@@H](CCCCN)C(=O)N[C@@H](CC(=O)O)C(=O)NCC(=O)N[C@@H](CCCNC(=N)N)C(=O)N1CCC[C@H]1C(N)=O)C(C)C)C(=O)O)C(=O)O

The target of the first experiment is glucagon receptor. In words: cell-based or functional assay.
B1: the “EC50 (nM) at glucagon receptor” value was determined as 0.106 nM.
Same read-out and setting: the result for B2 reads 0.933 nM; that for H[dS]QGTFTSDK([γGlu-Palmitoyl])SKYLDERAAQDFVQWLLKGRG-NH2 [peptide of SEQ ID NO: 27], 0.022 nM.
The same measure, in the same setting: the result for H[dS]QGTFTSDK([γGlu-Palmitoyl])SKYLDERAAQDFVQWLLDGRK-NH2 [peptide of SEQ ID NO: 28] reads 0.015 nM.
Still for that read-out and setting: under H[Aib]QGTFTSDK([γGlu-γGlu-Palmitoyl])SKYLD[Aib]RAAQDFVQWLMDTK[dA]-OH [peptide of SEQ ID NO: 32] stands 0.007 nM; under B3, 0.023 nM; under B4, 0.016 nM.
As for B5, the “EC50 (nM) at glucagon receptor” value turned out to be 0.014 nM.
B6: the “EC50 (nM) at glucagon receptor” value turned out to be 0.035 nM.
Still for that read-out and setting: under H[Aib]QGTFTSDYSKYLDERRA[Aib]EFVC(40K‑TE PEG″)WLLDT-NH2 [peptide of SEQ ID NO: 14] stands 0.365 nM.

A further experiment addresses GLP-1 receptor. In words: cell-based or functional assay.
B1: the “EC50 (nM) at GLP-1 receptor” value stood at 0.004 nM.
Still for that read-out and setting: under B2 stands 0.0082 nM; under H[dS]QGTFTSDK([γGlu-Palmitoyl])SKYLDERAAQDFVQWLLKGRG-NH2 [peptide of SEQ ID NO: 27], 0.005 nM.
Same read-out and setting: under H[dS]QGTFTSDK([γGlu-Palmitoyl])SKYLDERAAQDFVQWLLDGRK-NH2 [peptide of SEQ ID NO: 28] stands 0.003 nM; under H[Aib]QGTFTSDK([γGlu-γGlu-Palmitoyl])SKYLD[Aib]RAAQDFVQWLMDTK[dA]-OH [peptide of SEQ ID NO: 32], 0.008 nM; under B3, 0.019 nM.
Still for that read-out and setting: under B4 stands 0.007 nM; under B5, 0.007 nM.
Regarding B6, the “EC50 (nM) at GLP-1 receptor” value came to 0.003 nM.
Same read-out and setting: under H[Aib]QGTFTSDYSKYLDERRA[Aib]EFVC(40K‑TE PEG″)WLLDT-NH2 [peptide of SEQ ID NO: 14] stands 0.076 nM.

A further experiment concerns the target T1, GIP receptor. In words: cell-based or functional assay.
Consider B1, for which the “EC50 (nM) at GIP receptor” value was 3.29 nM.
For the molecule B2, the “EC50 (nM) at GIP receptor” value worked out at 9.06 nM.
H[dS]QGTFTSDK([γGlu-Palmitoyl])SKYLDERAAQDFVQWLLKGRG-NH2 [peptide of SEQ ID NO: 27]: the “EC50 (nM) at GIP receptor” value is 2.12 nM.
The same measure, in the same setting: under H[dS]QGTFTSDK([γGlu-Palmitoyl])SKYLDERAAQDFVQWLLDGRK-NH2 [peptide of SEQ ID NO: 28] stands 2.84 nM; under H[Aib]QGTFTSDK([γGlu-γGlu-Palmitoyl])SKYLD[Aib]RAAQDFVQWLMDTK[dA]-OH [peptide of SEQ ID NO: 32], 2.08 nM; under B3, 3.96 nM.
The same measure, in the same setting: under B4 stands 2.34 nM.
On to B5, for which the “EC50 (nM) at GIP receptor” value amounted to 1.65 nM.
Same read-out and setting: the result for B6 reads 2.36 nM; that for H[Aib]QGTFTSDYSKYLDERRA[Aib]EFVC(40K‑TE PEG″)WLLDT-NH2 [peptide of SEQ ID NO: 14], 33.7 nM.

Source of the values: patent US20120329707A1 (INDIANA UNIVERSITY RESEARCH AND TECHNOLOGY, published 2012).
